This note sets out measurements from patent US20170088631A1 (Hoffmann-La Roche, published 2017).

Experiment [1] concerns the target T1, human A2 domain of Tenascin-C (TNC A2), recombinant (human, UniProt P24821 1167-1256, limits assumed, biotinylated via a C-terminal avi-tag (Example 5)).
T1 construct: domain: A2 domain of Tenascin-C; also called human TNC A2
T1 sequence (looked up): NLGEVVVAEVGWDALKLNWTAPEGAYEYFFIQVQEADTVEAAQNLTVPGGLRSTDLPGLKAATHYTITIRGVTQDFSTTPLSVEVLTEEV
The experiment can be described thus: SPR (ProteOn XPR36), NLC chip, biotinylated TNC A2 as ligand (250 RU), construct as analyte, 1:1 global fit; human TNC A2 as ligand.

Experiment [2] deals with T2, human Fibroblast Activation Protein (FAP), recombinant (human, UniProt Q12884 27-760).
T2 construct: they are treated as one molecule; also called Hu FAP; huFAP
T2 sequence (Q12884 27-760 limits assumed): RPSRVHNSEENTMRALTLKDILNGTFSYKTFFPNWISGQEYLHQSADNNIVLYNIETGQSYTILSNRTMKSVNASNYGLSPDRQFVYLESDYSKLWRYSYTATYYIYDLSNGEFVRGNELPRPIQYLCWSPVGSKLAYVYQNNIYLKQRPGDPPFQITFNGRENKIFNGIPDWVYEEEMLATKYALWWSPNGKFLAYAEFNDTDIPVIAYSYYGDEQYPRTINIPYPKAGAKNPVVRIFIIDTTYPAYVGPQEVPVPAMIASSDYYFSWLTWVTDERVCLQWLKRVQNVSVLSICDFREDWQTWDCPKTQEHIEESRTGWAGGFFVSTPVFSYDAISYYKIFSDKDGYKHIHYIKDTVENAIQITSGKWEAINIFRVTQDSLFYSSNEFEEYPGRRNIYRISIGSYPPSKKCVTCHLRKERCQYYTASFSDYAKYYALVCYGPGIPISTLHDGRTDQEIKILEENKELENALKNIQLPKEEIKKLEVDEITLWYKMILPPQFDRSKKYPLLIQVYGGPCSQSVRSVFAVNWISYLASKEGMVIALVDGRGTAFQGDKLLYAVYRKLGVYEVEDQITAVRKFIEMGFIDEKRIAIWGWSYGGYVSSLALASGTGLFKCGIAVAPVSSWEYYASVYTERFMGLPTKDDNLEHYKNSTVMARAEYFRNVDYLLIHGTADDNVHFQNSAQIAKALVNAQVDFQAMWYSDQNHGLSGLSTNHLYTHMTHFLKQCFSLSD
In words: SPR (ProteOn XPR36), GLM chip, huFAP as ligand by amine coupling (500 RU), construct as analyte, 1:1 global fit.

Experiment [3] has as its target T2, human Fibroblast Activation Protein …. The experiment can be described thus: SPR (Biacore), His-tagged human FAP captured by anti-His antibody, antibody as analyte, 25 C; apparent bivalent affinity (avidity), 1:1 fit. For orientation: In SPR one partner is held on a chip, and binding of the other changes the refractive index at the surface.
Experimental: The FAP binding activity of the IgG-IL-2 qm immunoconjugates based on 4G8 and 28H1 anti-FAP antibodies were determined by surface plasmon resonance (SPR) on a Biacore machine in comparison to the corresponding unmodified IgG antibodies. […] Temperature was 25° C. and HBS-EP was used as buffer. Analyte concentration was 50 nM down to 0.05 nM at a flow rate of 50 μl/min (association: 300 s, dissociation: 900 s, regeneration: 60 s with 10 mM glycine pH 2). Fitting was performed based on a 1:1 binding model, RI=0, Rmax=local (because of capture format).

B1: TNC A2-targeted 2B10-based IgG-IL-10 immunoconjugate with monomeric IL-10 (IL-10M1) (other)
heavy 1: EIVLTQSPGTLSLSPGERATLSCRASQSVSRSYLAWYQQKPGQAPRLLIIGASTRATGIPDRFSGSGSGTDFTLTISRLEPEDFAVYYCQQGQVIPPTFGQGTKVEIKRTVAAPSVFIFPPSDEQLKSGTASVVCLLNNFYPREAKVQWKVDNALQSGNSQESVTEQDSKDSTYSLSSTLTLSKADYEKHKVYACEVTHQGLSSPVTKSFNRGEC
heavy 2: EIVLTQSPGTLSLSPGERATLSCRASQSVSSSYLAWYQQKPGQAPRLLIYGASSRATGIPDRFSGSGSGTDFTLTISRLEPEDFAVYYCQQGQYTPPTFGQGTKVEIKRTVAAPSVFIFPPSDEQLKSGTASVVCLLNNFYPREAKVQWKVDNALQSGNSQESVTEQDSKDSTYSLSSTLTLSKADYEKHKVYACEVTHQGLSSPVTKSFNRGEC
light: EIVLTQSPGTLSLSPGERATLSCRASQSVSSNYLAWYQQKPGQAPRLLIYGAYIRATGIPDRFSGSGSGTDFTLTISRLEPEDFAVYYCQQGQVIPPTFGQGTKVEIKRTVAAPSVFIFPPSDEQLKSGTASVVCLLNNFYPREAKVQWKVDNALQSGNSQESVTEQDSKDSTYSLSSTLTLSKADYEKHKVYACEVTHQGLSSPVTKSFNRGEC
notes: P329G LALA in the Fc; also called 2B10 IgG-IL-10M1; TNCA2 2B10 IgG-IL-10M1
By koff is commonly meant a measure of how fast the partners let go of each other. As usually defined, the kon is a measure of how fast the partners come together. In the case of B1, in experiment [1], the Kd is 0.052 nM, the koff came to 9.35e-05 s⁻¹ and the kon came to 1.8e+06 M⁻¹ s⁻¹.

B2: FAP-targeted 4G8-based IgG-IL-10 immunoconjugate with monomeric IL-10 (IL-10M1) (other)
heavy 1: not shown
heavy 2: not shown
light: EVQLLESGGGLVQPGGSLRLSCAASGFTFSRYGMSWVRQAPGKGLEWVSAISGSGGSTYYADSVKGRFTISRDNSKNTLYLQMNSLRAEDTAVYYCAKAHNAFDYWGQGTLVTVSSASTKGPSVFPLAPSSKSTSGGTAALGCLVKDYFPEPVTVSWNSGALTSGVHTFPAVLQSSGLYSLSSVVTVPSSSLGTQTYICNVNHKPSNTKVDKKVEPKSCDSSSSGSSSSGSSSSGAPASSSTKKTQLQLEHLLLDLQMILNGINNYKNPKLTRMLTAKFAMPKKATELKHLQCLEEELKPLEEVLNGAQSKNFHLRPRDLISNINVIVLELKGSETTFMCEYADETATIVEFLNRWITFAQSIISTLTSGGGGSGGGGSGGGGEVQLLESGGGLVQPGGSLRLSCAASGFTFSRYGMSWVRQAPGKGLEWVSAISGSGGSTYYADSVKGRFTISRDNSKNTLYLQMNSLRAEDTAVYYCAKAHNAFDYWGQGTLVTVSSASTKGPSVFPLAPSSKSTSGGTAALGCLVKDYFPEPVTVSWNSGALTSGVHTFPAVLQSSGLYSLSSVVTVPSSSLGTQTYICNVNHKPSNTKVDKKVEPKSCD
notes: P329G LALA in the Fc; also called 4G8 IgG-IL-10M1; FAP 4G8 IgG-IL-10M1
As for B2, in experiment [2], the Kd turned out to be 0.026 nM, the koff was determined as 1.75e-05 s⁻¹ and the kon turned out to be 668000 M⁻¹ s⁻¹.

B3: 4G8 IgG (unmodified anti-FAP antibody) (antibody, V domains shown)
VH: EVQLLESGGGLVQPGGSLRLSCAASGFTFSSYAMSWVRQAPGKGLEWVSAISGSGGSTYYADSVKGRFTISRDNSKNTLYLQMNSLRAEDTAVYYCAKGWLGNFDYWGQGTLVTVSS
VL: EIVLTQSPGTLSLSPGERATLSCRASQSVSRSYLAWYQQKPGQAPRLLIIGASTRATGIPDRFSGSGSGTDFTLTISRLEPEDFAVYYCQQGQVIPPTFGQGTKVEIK
With B3, in experiment [3], the Kd came out at 0.05 nM.

B4: 28H1 IgG (unmodified anti-FAP antibody) (antibody, V domains shown)
VH: EVQLLESGGGLVQPGGSLRLSCAASGFTFSSHAMSWVRQAPGKGLEWVSAIWASGEQYYADSVKGRFTISRDNSKNTLYLQMNSLRAEDTAVYYCAKGWLGNFDYWGQGTLVTVSS
VL: EIVLTQSPGTLSLSPGERATLSCRASQSVSRSYLAWYQQKPGQAPRLLIIGASTRATGIPDRFSGSGSGTDFTLTISRLEPEDFAVYYCQQGQVIPPTFGQGTKVEIK
notes: Corresponding unmodified IgG of the 28H1 immunoconjugate
On to B4, for which, in experiment [3], the Kd turned out to be 0.2 nM.
